Measured values as given in patent publication US8114968 (DYAX, dated 2012).
Positions count from the first letter of the chain named.

B1: 539A-M0019-C05 Fab (Fab, V domains shown)
VH: EVQLLESGGGLVQPGGSLRLSCAASGFTFSWYAMVWVRQAPGKGLEWVSYIGSSGGVTGYADSVKGRFTISRDNSKNTLYLQMNSLRAEDTAVYYCARQKRVDYYDSSGYPTNAEFDYWGQGTLVTVSS
VL: QYELTQPRSVSGSPGQSVTISCTGSSSDVAGFYYVSWYQQHPGKAPKLMIRDVNDRPSGVSNRFSGSKSGNTASLTIAGLQTEDEAVYYCSSTSRSDTRVIFGGGTKLTV
B2: 539A-M0019-C05 IgG (antibody, V domains shown)
VH: B1 VH
VL: B1 VL
B3: 539A-M0016-A11 Fab (Fab, V domains shown)
VH: EVQLLESGGGLVQPGGSLRLSCAASGFTFSEYQMAWVRQAPGKGLEWVSSIYPSGGHTHYADSVKGRFTISRDNSKNTLYLQMNSLRAEDTAVYYCAKESYYDFWSGYYFDYWGQGTLVTVSS
VL: DIQMTQSPSSLSASVRDRVTITCRTSQNINTYLNWYYQAPGRAPKLLIFGVSSLHRGVSSRFSGSGDGTEFTLTISSLQPEDIGTYFCQQSYSSPWTFGQGTKVEIK
B4: 539A-M0013-G12 Fab (Fab, V domains shown)
VH: EVQLLESGGGLVQPGGSLRLSCAASGFTFSWYHMFWVRQAPGKGLEWVSGISSSGGYTHYADSVKGRFTISRDNSKNTLYLQMNSLRAEDTAVYYCATREGMLYDYVWGENYMDVWGKGTTVTVSS
VL: DIQMTQSPSSLSASVGDRVTITCQASQDTYNRLHWYQQKPGKAPKLLIYDAVNLNRGVPSRFRGSGSGTNYILIITNLQPEDTATYYCQHSDDLSLAFGGGTKVEIK
B5: 539A-M0014-C09 IgG (antibody, V domains shown)
VH: EVQLLESGGGLVQPGGSLRLSCAASGFTFSDYSMHWVRQAPGKGLEWVSGIGPSGGPTFYADSVKGRFTISRDNSKNTLYLQMNSLRAEDTAVYYCARGEYSSSDYYYYYGMDVWGQGTTVTVSS
VL: DIQMTQSPATLSLSPGERATLSCGASQNIDGYYLAWYQQKPGQAPSLLIYDASSRSTGVPDRFSGSGSGTDFTLTISRLEPEDFAVYYCQHYGNSLWTFGQGTKVEIK
B6: 539A-M0014-C09 Fab (Fab, V domains shown)
VH: B5 VH
VL: B5 VL
B7: 539A-M0016-H05 Fab (Fab, V domains shown)
VH: EVQLLESGGGLVQPGGSLRLSCAASGFTFSWYAMSWVRQAPGKGLEWVSRIVPSGGDTGYADSVKGRFTISRDNSKNTLYLQMNSLRAEDTAVYYCATFRGIMYGDYGSSYWYFDLWGRGTLVTVSS
VL: DIQMTQSPATLSLSPGERATLSCRASQSVSSYLAWYQQKPGQAPRLLIYDASNRATGIPARFSGSGSGTDFTLTISSLEPEDFAVYYCQQRSNWPLTFGGGTKVEIK
B8: 539A-M0016-H05 IgG (antibody, V domains shown)
VH: B7 VH
VL: B7 VL
B9: 539A-M0022-C07 Fab (Fab, V domains shown)
VH: EVQLLESGGGLVQPGGSLRLSCAASGFTFSIYQMWWVRQAPGKGLEWVSSISSSGFTWYADSVKGRFTISRDNSKNTLYLQMNSLRAEDTAVYYCTTEDIGYYYGMDVWGQGTTVTVSS
VL: DIQMTQSPATLSVSPGERATLSCRASQNVRNYLAWYQQKPGQAPRLLIYDASKRATGIPARFSGSGSGTDFTLTISGLEPEDFAVYYCQQRSNWPTFGPGTKVDIK
B10: 539A-M0022-C07 IgG (antibody, V domains shown)
VH: B9 VH
VL: B9 VL
B11: 539A-M0013-D11 Fab (Fab, V domains shown)
VH: EVQLLESGGGLVQPGGSLRLSCAASGFTFSSYPMWWVRQAPGKGLEWVSGIVPSGGVTIYADSVKGRFTISRDNSKNTLYLQMNSLRAEDTAVYYCARVGWLASSDYYYYMDVWGKGTTVTVSS
VL: DIQMTQSPSSLSASVGDRITISCQASQDIDNYLNWYQQRSGKAPKLLIYDAYNLKAGVPSRFRGSRSGTDFFLTISSLQPEDFATYYCQQSYRAPLTFGGGTKVEIK
B12: 539A-M0020-B01 Fab (Fab, V domains shown)
VH: EVQLLESGGGLVQPGGSLRLSCAASGFTFSHYVMHWVRQAPGKGLEWVSYIGSSGGETRYADSVKGRFTISRDNSKNTLYLQMNSLRAEDTAVYYCARADYGDYDYYYYYGMDVWGQGTTVTVSS
VL: QYELTQPPSVSVAPGQTATITCEGNNIASKSVHWYQQKPGQAPVLVVYDDRDRPSGISERISGSNSGNTPTLTIFRVEAGDEADYYCQVSDSATDHRVFGGGTKLTVL
B13: 539A-M0027-E11 Fab (Fab, V domains shown)
VH: B12 VH with V33E, H35E, Y50S, G52S, E57P, R59M, A99G, D100M, Y106F
VL: DIQMTQSPDTLSLSPGERGTLSCRASQSLSSSYLAWYQQKPGQAPRLLIYDASSRATGIPDRFSGSGSGTDFTLTIGRLEPEDSAVYYCQQYGSFPLTFGGGTKVEIK
B14: 539A-M0027-E11 IgG (antibody, V domains shown)
VH: B12 VH with V33E, H35E, Y50S, G52S, E57P, R59M, A99G, D100M, Y106F
VL: B13 VL
B15: 539A-M0020-B01 IgG (antibody, V domains shown)
VH: B12 VH
VL: B12 VL
B16: 539A-M0014-G11 Fab (Fab, V domains shown)
VH: EVQLLESGGGLVQPGGSLRLSCAASGFTFSWYVMVWVRQAPGKGLEWVSSIYSSGGPTKYADSVKGRFTISRDNSKNTLYLQMNSLRAEDTAVYYCAKEGGVYGGPELYYYYYGMDVWGQGTTVTVSS
VL: QYELTQPPSASGTPGQRITISCSGSSSNLGSNPVQWYQQLPGSAPKLLIHTNTHRPSGVPDRFSGSKSVTSASLAISGLQSEDEAEYYCATWDDSLNGGVFGGGTKLTVL
B17: 539A-M0014-G11 IgG (antibody, V domains shown)
VH: B16 VH
VL: B16 VL
B18: 539A-M0013-H06 Fab (Fab, V domains shown)
VH: EVQLLESGGGLVQPGGSLRLSCAASGFTFSAYEMDWVRQAPGKGLEWVSGISSSGGPTYYADSVKGRFTISRDNSKNTLYLQMNSLRAEDTAVYYCARVGGWELLQDYYYYMDVWGKGTTVTVSS
VL: DIQMTQSPATLSLSPGERATLSCRASHSVDNLAWYQQQPGQAPRLLIYDVSYRATGIPARFSGSGSGTDFTLTISSLEPEDFAVYYCQQRNNWPLSLTFGGGTKVEIK

Biological target: human MMP-12 (human, UniProt P39900 106-470, limits assumed)
Sequence (P39900 106-470 limits assumed): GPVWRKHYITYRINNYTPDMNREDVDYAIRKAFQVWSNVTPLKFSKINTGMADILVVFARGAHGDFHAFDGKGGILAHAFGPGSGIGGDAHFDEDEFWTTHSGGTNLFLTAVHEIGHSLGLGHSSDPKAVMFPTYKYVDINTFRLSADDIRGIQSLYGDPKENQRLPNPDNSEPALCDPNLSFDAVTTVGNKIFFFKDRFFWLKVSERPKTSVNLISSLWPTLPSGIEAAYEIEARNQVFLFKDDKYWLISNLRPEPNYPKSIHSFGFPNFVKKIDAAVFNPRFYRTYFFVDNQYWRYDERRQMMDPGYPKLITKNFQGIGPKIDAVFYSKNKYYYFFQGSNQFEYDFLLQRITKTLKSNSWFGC
Experiment: cell-based or functional assay

Binder | IC50 (nM), large scale purified Fabs | IC50 (nM), IgGs
B1 | 93 nM | 
B2 |  | 24.5 nM
B3 | 8.8 nM | 
B4 | 6.7 nM | 
B5 |  | 43.3 nM
B6 | 36.9 nM | 
B7 | 56.6 nM | 
B8 |  | 32.9 nM
B9 | 24.2 nM | 
B10 |  | 13.2 nM
B11 | 20.3 nM | 
B12 | 74.8 nM | 
B13 | 23.9 nM | 
B14 |  | 23.7 nM
B15 |  | 34.6 nM
B16 | 35 nM | 
B17 |  | 12.3 nM
B18 | 11.9 nM | 
